Results published in the nanobody polyreactivity screen of Harvey et al. (2022).

Test: yeast display, Sf9 membrane polyspecificity reagent, FACS + sequencing; frameworks hold sequencing errors
Method in brief: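 In a synthetic yeast display library (Saccharomyces cerevisiae BJ5465), nanobody expression was induced with galactose for 36–48 hours. FACS gates were set low and high (top ~1%) using anti-HA fluorescence for expression and streptavidin fluorescence for binding of the Sf9 membrane reagent. Each polyreactivity label is drawn from the gate of origin.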

Sequence	polyreactivity (PSR sort gate)
QVQLVESGGGLVQAGGSLRLSCAASGLTFPSYAMGWSRQAPGKERELVAAISRRSGSTYYADSVKGRFTICGDNAKYTVYLQMISLKPEDTAVYYCTTRRGERGYWGQGTQVTVSS	high polyreactivity
QVQLVESGGGLVQAGGSLRLSCAASGTFAGNAMGWYRQAPGKERELVAAITTGGRTYYADSVKGRFTISRDNAKNTVYLQMNSLKPEDTAVYYCAADRIRDLEFDYWGQGTKVTVSS	low polyreactivity
QVQHVESGGGIVQAGGSLRLSCAASGRTFGPYAMGWYRQAPGKEWELVAVISGRGTSTYYADSVKGRFTISRDNAKNTVYLQMNSLKPEDTAVYYCKADYGSWFWGFDYWGQGTQVTVSS	low polyreactivity
QVQLVESGGGLVQAGGSLRLSCAASGFTYIFYAMGWYRQAPGKERELVAAITWDGDRTYYADSVKGRFTISRDNAKNTVYLQMNSLKPEDTAVYYCNADEGGNYREDYWGQGTQVTVSS	low polyreactivity
QVQLVESGGGLDQAGGSLRLSCAASGITFRWYAMGWYRQAPGKERELVAAISSGGSTRYADSVKGRFTISRDNAKNTVYLQMNSLKPEDTAVYYCAKRYYGRGYYYWGQGTQVTVSS	high polyreactivity
QVQLVESGGGLVQAGGSLRLSCAASGRTFVFNAMGWYRQAPGKERELVAAITKNGGSTYYADSVKGRFTISRDNAKNTVYLQMNSLKPEDTAVYYCAVRRGYPFYYWGQGTQVTVSS	low polyreactivity
QVQLLESVGGLVQAGGSLRLSCAASGRIFGSNAMGWYRQAPGKERELVAAITRGGSTNYADSVKGRFTISRDNAKNTVYLQMNSLKPEDTAVYYCAVRWYRKYNYWGQGTQVTVSS	high polyreactivity
QVQLVESGGGLVQAGGSLRLSCAASGSIFTVNAMGWYRQAPGKERELVAAISDSGGSTYYADSVKGRFTISRDNAKNTVYLQMISLKPEDTAVYYCAVEIYYFVYGISYDYWGQGTQVTVSS	high polyreactivity
QVQLVESGGGLVQAGGSLRLSCAASGRTFIYNTMGWYRQAPGKERELFAAISSGGSTNYADSVKGRFTISRDNAKNTVYLQMNSLKPEDTAVYYCATQGLSAPFDGFVNSRFDHRGQGTQVTVSS	low polyreactivity
QVQLVESGGGLVQARGSLRLSCAASGSIFRSYAMGWYRQAPGKERELVAAITSGGNTYYADSVKGRFTISRDNAKNTVYLQMNSLKPEDTAVYYCAKRRYNYLSDYDYWGQGTQVTVSS	low polyreactivity
QVQLVESGGGLVQAGGSLRLSCAASGRIFRTNAMGWYRQAPGKERELVAAISDSGADTSYADSVKGRFTISRDNAKNTVYLQMNSLKPEDTAVYYCNRGRVYYRYLKDYDYWGQGTQVTVSS	low polyreactivity
QVQLVESGGGLVQAGGSLRLSCAASGRTFSRYTMGWYRQAPGKERELVARISQRGGSTYYADSVKGRFTISRDYAKNTVYLQMNSLKPEDTAVYYCAKKTYSPYGGYDSWGQGTQVTVSS	high polyreactivity
QVQLVESGGGLVQAGGSLRLSCAPSGSIYDDYAMGWYRQAPGKERELVAAISSSGTSTYYADSVKGRFTISRDNAKNTVYLQMIRLKPEDTAGYYCAARSAILKSGYLMDYWGQGTLVTVSS	low polyreactivity
QVQLVESGGGLVQAGGILRLSCAASGGIIAINAMGWYRQAPGKERELVAAISWGDGITYYADSVKGRFTISRDNEKNTVYLQMNSLKPEDTAVYYCAADEDEYRGGDESWGQGTQVTVSS	low polyreactivity
QDQLVESGGVLVQAGGSLRLSCAASGNIFAVYAMGWYRQAPGKERELVAAITTGTNTYADSVKGRFTISRDNAKNTVYLQMNSLKTEDTAVYYCAARSYRPLDYWGQGTQVTVSS	low polyreactivity
QVQLVESGGGLVQAGGSLRLSCAASGIIFVFYVMGWYRQAPGKERELVAAISGGGSTYYADSVKGRFTISRDNAKNTVYLQMNSLKPEDTAVYYCNADYDGGYYGDLSLYDYWGQGTQVTVSS	low polyreactivity
QVQLVESGGGLVQAGGSLRLSCAASGRIFDYNAMRRYRQAPGKERELVAAINSGGSTYADSVKGRFTISRDNAKNTVYLQMNSLKPEDTGVYDCAKSLGQTVWEYDSWGQGTQVTVSS	low polyreactivity
QVQLVESGGGLVQAGGSLRLSCDASGRIFYFYAMGWYRQAPGKESELVAAISTSGGSTYYADSVKGRFTISRDNAKNTVYLQMNSLKPEDTAVYYCAARYRYYGSEYDYWGQGTQVTVSS	low polyreactivity
QVQLVESGGGLGQAGGSLRLSCAASGNTFYWNAMGWYRQAPGKERELVAAISTTGVSSYYADSVKGRFTISRDNAKNSVYLQMNSLKPEDTAVYYCAGEIIGYHTIYDYWGQGTQVTVSS	low polyreactivity
QVQLVESGGGLVQAGGSLRLSCAASGSISYRYVMGWYRQAPGKERELVAAITTSGGSTYYADSVKGRFTISRDNAKNTVYLQMNSLKPEDTAVYYCATVYQAAQLRSHYDYWGQGTQVTVSS	high polyreactivity
QVQLVESGGGIVQAGGSLRLSCAASGRNFIHYAMGGYRQAPGKERELVAAISWGGGRTYYADSEKGRFTISRDNAKNTVYLQMNSLKPEDTAVYYCAAAGRGSGYDYWGQGTQVTVSS	high polyreactivity
QVQLVESGGGLVQAGGSLRLSCAASGRTFLLYAMGWYRQAPGKERELVAAISSGGSTYYADSVKGRFTISRDNAKNTVYLQMNSLKPEDTAVYYCNAVYQHLASEYDYWGQGTQVTVSS	low polyreactivity

Sequence	polyreactivity (PSR sort gate)
QVQLVESGGGLVQAGGSLRLSSAASGRTGVNAMGWDRHAPGKERELGAAINNGDSTYYADSVKGRFTISRDNAKNTVYLQMNSLTPEDTAVYDCAAGLDEGDYWQESDYWGQGTQVTVSS	low polyreactivity
QVQLVESGGGLVQAGGSLRLSCAASGITFWRTAMGWYRQAPGKEREFVAAITWTGGRTYYADSVKGRFTISRDNAQNTVYLQMNSLKPEDTAVYYCATGQSRDYYWGQGTQGTVSS	high polyreactivity
QVQLVESGGGLVQAGGSLRLSCAASGIIFYYYAMGWYRQAPGKERELVAAISWSGGSTYYADSVKGRFTISRDNAKNTVYLQMNSLKPEDTAVYYCAASSTSGYDWGQGTQVTVSS	low polyreactivity
QVQLVESGGGLVQAGGSLRLICAASGRTIGRNAMRWSRQAPGKERELVAAISSSGGSTYYADSVKGRFTISRDKAKNTVYLQMNSLKPEDTAVYYCNARGWYGLRKYYYWGQGTQVTVSS	high polyreactivity
QVQLVESGGGLVQAGGSLRLICAASGRIFYYNAMGWYRQAPGKERELVAVITRSGGRTFYADSVKGRFTISRDNAKNTGYLQMNSLKPEDTAVYYCAARYRYYPVTTRGYYWGQGTQVTVSS	high polyreactivity
QVQLVESGGGLVQAGGSLRLICAASGSTFQLTAMGWYIQAPGTEREFVASITDSGGRTYYADSVKGRFTISRDNANNTVYLQMNSLKPVDTAVYYCNTAGAAERRRAYDHDYWGQGTQVTVSS	high polyreactivity
QVQLVESGGGLVQAGGSLRLSCAASGFTFKYNAMGWYRQAPGKERELVASISRGSSTNYADSVKGRFTISRDNAKNTVYLQMNSLKPEDTAVYYCAKGYRPWGSYDYWGQGTQVTVSS	high polyreactivity
QVQLVESGGGLVQAGGSLRLSCAASGRIFSRYTMGWYRQAPGKERELVAAISYRGGSTYYADSVKGRFTISRDNAKNTVYLQMNSLKPEDTAVYYCAARVQAIYRYDYWGQGTQVTVSS	high polyreactivity
QVQLVESGGGLVQAGGSLRLSCAASGRIIKTNAMGWYRQAPGKERELVAAISSSGGRTYYADSVKGRFTISRDNAKNTVYLQMNSLKPEDTAVYYCAAPSLVSFGYWGQGTQVTVSS	high polyreactivity
QVQLVESGGGLVQAGGSLRLSCAASGRIFEYYAMGWYRQAPGKERELVAAINTGGNTYYADSVKGRFTLSRDNAKNTVYLQMNSLKPEDTAVYYCATYPIWYCGYLSGTDYDYWGQGTQVTVSS	low polyreactivity
QGQLVQSGVGLVQAGGSLSLSCAASGIIFTWYDMGWYRQAPGKERELVAAISNSGGSTYYADSVKGRFTISRDNAKNTVYLQMNSLKPEDTAVYYCNAGSYVCEEDYWGQGTQVTVSS	high polyreactivity
QVQLVESGGRLVQAGGSLRLSCAASGGIFTAYTMGWYRQAPGKESELVAVISSGGGRTYYADSVKGRFTISRDNAKNTVYLQMNSLKPEDTAVYYCNARVYVSANKYDYWGQGTQVTVSS	high polyreactivity
QVQLVESGGGLVQAGGSLRLSCAASGSTFPSYAMGWYRQAPGKERELVAAITNGGSTTYADSVKGRFTISRDNAKNTVYIQMNSLKPEDTAVYYCAARYYYYYYYIRRDYWGQGTQVTVSS	low polyreactivity
QVQLVESGGGLVQAGGSLRLSCAASGSTFRTYAMGWYRQAPGKERELVAAISRSGGSTYYADSVKGRFTISRDNAKNTFYLQMNSLKPEDTAVYYCAARGGRGWTPSDYWGQGTQVTVSS	high polyreactivity
QVQLVESGGGLVQAGGSLRLSCAASGLTFAYYDMGWYRQAPGKERELVAAITSGGTTNYADSVKGRFTISRDNAKNTVYLQMNSLKPEDTAVYYCYADYYSRIVGVRIYDYWGQGTQVTVSS	low polyreactivity
QVQLVESGGGLVQAGGSLRLSCAASGSIIGYYAMGWYRQAPGKERELVAAISRTGGSTYYADSVKGRFTISRDNAKNTVFLPMNSLKPEDTAVYYCATRTYARHDYWGQGTQGTVSS	high polyreactivity
QVQLVESGGGLVQAGGSLRLSCAASGRTFLRYAMGWYRQAPGKERELVAAISSRGGTTHYADSVKGRFTISRDNAKNTVYLLMNSLKPEDTAVYYCAAKSFLPYLKFGYWGQGTQVTVSS	high polyreactivity
QVQLVESGGGLVQAGGSLRLSCAASGSTFRVYGMGWSRQAPGKERELVAVIRWRGGRTSYADSVKGRFTISRDYAKNTVYLQLNSLKPEDTAVYYCARQRSYGRSSYSYGYDYWGQGTQVTVSS	high polyreactivity
QVQLVESGGGLVHAGGSLRLSCAASGSIFWYYTMGSYRQAPGKERELVATIRWRSGSTYYADSVKGRYTISRDNAKNTVYLQMNTQKPEDTAVYYCAADLYSAVYFSRWSDYWGQGTQVTVSS	high polyreactivity
QVQLVESCGGLVQAGGSLRLSCAASGRIFLYNAMGWYRQAPGKERELVAVISRNGGSTYYADSVKGRFTISRDNAKNTVYLQMNSLKPEDTAVYYCNRYDRLAGRTTYDYWGQGSQVTVSS	high polyreactivity
QVQLVESGGGLVQAGGSLRLSCAASGITFWRNAMGWYRQAPGKESELVAAISWSVGRTYYADSVKGRFTISRDNAKNTVYLQMNSLKPEDTAFYYCIARWRSGPRAYDYWGQGTQVSVSS	high polyreactivity
